Tests used:
[1] = target: T1, PRLR (prolactin receptor, as named in the kinetics and crystallography paragraph) (UniProt P16471 25-234, limits assumed); experiment: kinetic measurement, method not named
T1 construct: The paragraph says only 'PRLR'
T1 sequence (looked up): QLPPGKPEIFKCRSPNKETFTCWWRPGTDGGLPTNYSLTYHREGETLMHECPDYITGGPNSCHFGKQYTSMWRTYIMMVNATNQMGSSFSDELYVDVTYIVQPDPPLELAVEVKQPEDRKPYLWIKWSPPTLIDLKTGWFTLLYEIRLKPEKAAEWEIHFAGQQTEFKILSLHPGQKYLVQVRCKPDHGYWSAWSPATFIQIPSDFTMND

[2] = target: T2, Human PRLR expressed on HEK-293 cells (human, UniProt P16471 25-622); experiment: FACS titration on PRLR-expressing HEK-293 cells (293hPRLR), MFI against Ab (nM)
T2 construct: also called PRLR-expressing HEK-293 cells; HEK293/Human PRLR
T2 sequence: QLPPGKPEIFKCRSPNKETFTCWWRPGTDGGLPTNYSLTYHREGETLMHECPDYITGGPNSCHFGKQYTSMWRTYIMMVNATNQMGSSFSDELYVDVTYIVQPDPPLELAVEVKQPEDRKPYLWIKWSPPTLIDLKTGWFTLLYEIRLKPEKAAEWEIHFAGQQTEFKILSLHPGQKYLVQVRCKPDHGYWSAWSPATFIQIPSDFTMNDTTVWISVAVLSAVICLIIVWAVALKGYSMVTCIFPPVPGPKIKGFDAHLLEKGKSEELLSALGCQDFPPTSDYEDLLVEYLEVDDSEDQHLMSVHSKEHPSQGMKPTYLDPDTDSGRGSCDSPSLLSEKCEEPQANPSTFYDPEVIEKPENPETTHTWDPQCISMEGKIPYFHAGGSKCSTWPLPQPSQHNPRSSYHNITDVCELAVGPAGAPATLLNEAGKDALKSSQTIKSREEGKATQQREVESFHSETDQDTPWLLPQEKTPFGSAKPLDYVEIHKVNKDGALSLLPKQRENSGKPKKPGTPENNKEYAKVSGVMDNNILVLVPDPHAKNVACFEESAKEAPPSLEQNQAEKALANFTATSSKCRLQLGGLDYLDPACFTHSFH

Binder	Kd [1]	koff [1]	EC50 [2]
anti-PRLR antibody LFA-102 (Novartis) (antibody, V domains shown) VH: EVQLVESGGGLVQPGGSLRLSCAVSGFTFSSYGMSWVRQAPGKRLEWVATVSSGGTYTYYPDSVKGRFTISRDNSKNTLYLQMNSLRAEDTAMYYCARHRGNYYATYYYAMDYWGQGTLVTVSS VL: DIVLTQSPDSLAVSLGERATINCKASKSVSTSGYTYMHWYQQKPGQPPKLLIYLASNRESGVPDRFSGSGSGTDFTLTISPVQAEDVATYYCQHSGELPPSFGQGTKLEIKR	1.3 nM	0.0011 s⁻¹	
h16f humanized anti-PRLR antibody (antibody, human IgG1, kappa, Humanized IgG1; also called antibody h16f; parental h16f) heavy: not shown light: DIQMTQSPSSVSASVGDRVTITCKASQYVGTAVAWYQQKPGKSPKLLIYSASNRYTGVPSRFSDSGSGTDFTLTISSLQPEDFATYFCQQYSSYPWTFGGGTKVEIKRTVAAPSVFIFPPSDEQLKSGTASVVCLLNNFYPREAKVQWKVDNALQSGNSQESVTEQDSKDSTYSLSSTLTLSKADYEKHKVYACEVTHQGLSSPVTKSFNRGEC	0.46 nM	0.000623 s⁻¹	0.29 nM
h16e anti-PRLR antibody (antibody, human IgG1, kappa) heavy: not shown light: DIQMTQSPSSLSASVGDRVTITCRASENIYSYLAWYQQKPGKPPKLLVYNAKTLAEGVPSRFSGSGSGTDFTLTISSLQPEDFATYYCQHHYATPFTFGQGTKLEIKRTVAAPSVFIFPPSDEQLKSGTASVVCLLNNFYPREAKVQWKVDNALQSGNSQESVTEQDSKDSTYSLSSTLTLSKADYEKHKVYACEVTHQGLSSPVTKSFNRGEC			0.5 nM

Source: patent US20190010237A1 (AbbVie / Abbott, published 2019)
